# Test: yeast display, Sf9 membrane polyspecificity reagent, FACS + sequencing; frameworks hold sequencing errors
# How it was run: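 Nanobodies from a synthetic yeast display library (Saccharomyces cerevisiae BJ5465), induced 36–48 hours with galactose, were stained 1 hour at 4 °C with 10% biotinylated, detergent-solubilized Sf9 membrane reagent, enriched on streptavidin microbeads, then FACS-sorted. Anti-HA (expression) and streptavidin (reagent binding) fluorescence set low and high (top ~1%) gates. Polyreactivity labels come from the gate of origin. Genes were colony-PCR amplified, MiSeq 2 × 250 sequenced and filtered by CDR length.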
row,Sequence,polyreactivity (PSR sort gate)
1,QVQLVESGGGLVQAGGSLRLSCAASGSTFNNNAMGWYRQAPGKERELVAAISYTGGSTYYADSVKGRFTISRDNAKNTVYLQMKSLKPEDTAVYYCDAAYPHFGGYRYDYWGQGTQVTVSS,high polyreactivity
2,QVQLVESGGGLVQAGGSLRLSCAASGSTFNQYAMGWYRQAPGKEREFVATITWSGGRTYYADSVKGRFTISRDNAKNTVYLQMISLKPEDTAVYYCAAQPDYRPSYGYGYWGQGTQVTVSS,low polyreactivity
3,QVQLVESGGGLVQAGGSLRLSCAASGSTFNRYALGWYRQAPGKEREFVAAISTRGGSTHYADSVKGRFTISRDNAKNTVYLQMNSLKPEDTAVYYCNARGYYSVPSNTGIRYYRFDYWGQGTQVTVSS,low polyreactivity
4,QVQLVESGGGLVQAGGSLRLSCAASGSTFNRYAMGWYRQAHGKERELVAGISYRGGTYYSDSVKGRFTISRDNAKNTVYLQMNSLKPEDTAVYYCNVVRRGTTSYDDYEYWGQGTQVTVSS,high polyreactivity
5,QVQLVESGGGLVQAGGSLRLSCAASGSTFNRYAMGWYRQAPGKERELVAAITRSGTSTYYADSVKGRFTISRDNAKNTVYLQMNSLKPEDTAVYYCAAVRYAVHFSYDYWGQGTQVTVSS,high polyreactivity
6,QVQLVESGGGLVQAGGSLRLSCAASGSTFNRYAMGWYRQAPGKERELVAAITSTGGTNYADSVKGRFTISLDNAKNTVYLQMYSLKPEDTAVYYCAKRWLRGRSNYWGHGTQVTVSS,high polyreactivity
7,QVQLVESGGGLVQAGGSLRLSCAASGSTFNTNAMGWYRQAPGKERELVAAITSSGGGTYYADSVKGRFTISRDNAKNTVYLQMNSLKPEDTAVYYCNAVSGWYNSITYDYWGQGTQVTVSS,high polyreactivity
8,QVQLVESGGGLVQAGGSLRLSCAASGSTFNTYAMGWYRQAPGKERELVAAITWRGGRTYYADSVKGRFTISRDNAKNTVYLQMISLKPEDTAVYYCNTLRPRLDGVYGYDYWGQGSQVTVSS,high polyreactivity
9,QVQLVESGGGLVQAGGSLRLSCAASGSTFNWNAMGWYRPAPGKERELVAAISRSGGRTSYADSVKGRFTISRDNAKNTVYLQMNSLKPEDTAVYYCAAEKVGTRPSRDYDYWGQGTQVTVSS,high polyreactivity
10,QVQLVESGGGLVQAGGSLRLSCAASGSTFPAYTMGWYRQAPGKERELVAAINVSSGGSTYYADSVKGRFTISRDNAKNTVYLQRNSLKPEDTAVYYCATHGYVAHPYYYPYYYWGQGTQVTVSS,low polyreactivity
11,QVQLVESGGGLVQAGGSLRLSCAASGSTFPFNAMGWYRQAPGKEREFVAVINSGGDSTYYADSVKGRFTISRDNAKNTVYLQMNSLKPEDTAVYYCNAEDTRNDYDYWGQGTQVTVSS,low polyreactivity
12,QVQLVESGGGLVQAGGSLRLSCAASGSTFPFYAMGWYRQAPGKERELVAAIRYTGNTYYADSVKGRFTISRDNAKNTVYLQMNSLKPEDTAVYYCAADADYWAYGYWGQGTQVTVSS,low polyreactivity
13,QVQLVESGGGLVQAGGSLRLSCAASGSTFPGNAMGWYRQAPGNERELVAAIRWSGGRTYYADSVKGRFTISRDNAKNTVYLQMNSLKPEDTAVYYCAARLRKHGYGYWGQGTQVTVSS,low polyreactivity
14,QVQLVESGGGLVQAGGSLRLSCAASGSTFPHNAMGWYRPAPGKERELVAAISVGGGSTHYADSVKGRFTISRDNAKNTVYLQMNSLKPEDTAVYYCAKDYAYQYSFVTYDYWGQGTQVTVSS,low polyreactivity
15,QVQLVESGGGLVQAGGSLRLSCAASGSTFPKNAKGWYRQAPGKERELVAAINTGGSTYYADSVKGRFTISRDNAKNTVYLQINSLKPEDTAVYYCAARDNYHRDVGHPYDYWGQGTQVTVSS,low polyreactivity
16,QVQLVESGGGLVQAGGSLRLSCAASGSTFPKNAMGWTIQAPGKERELVADINTGGSTYYADSVKGRFTISRDNAKNTVYLQMNSLIPEDTAVYYCNTQSFYFVSYSSSRYLRYYWGQVTQVTVSS,low polyreactivity
17,QVQLVESGGGLVQAGGSLRLSCAASGSTFPKYAMGWYRPAPGKERELVAAITSRGSTYADSVKGRFTISRDNAKNTVYLPMNSLKPVDTAVYYCAKDSRYASRDYWGQGTQVTVSS,high polyreactivity
18,QVQLVESGGGLVQAGGSLRLSCAASGSTFPKYAMGWYRQAPGKERELVASISVTTGSTYYADSVKGRFTISRDSAKNTVYLQMNSQKPVDTAVFYCAKRTYSRKFRGAYNYWGQGTQVTVSS,high polyreactivity
19,QVQLVESGGGLVQAGGSLRLSCAASGSTFPPNAMGWYRQAPGKERELVAGINGSGGRTYYADSVKGRFTISRDNAKNTVYLQMNSMKPEDTAVYYCATRLRSEYYYNKWYYHWGQGTQVTVSS,high polyreactivity
20,QVQLVESGGGLVQAGGSLRLSCAASGSTFPPYVMGWYRQAPGKERELVAAITWSSGSTYYADSVKGRFTISRDNAKNTVYLQMNSLKPEDTAVYYCAARAYRWGQGTQVTVSS,low polyreactivity
21,QVQLVESGGGLVQAGGSLRLSCAASGSTFPQNVMGWYRQAPGKVRELVAAITRSAGSTYYADSVKGRFTISRDNPKNTVYLQMNSLKPEDTAVYNCNTGRQRGSYYYDYWGQGTQVTVSS,high polyreactivity

row,Sequence,polyreactivity (PSR sort gate)
1,QVQLVESGGGLVQAGGSLRLSCAASGSTFPRNAMGWYRLAPGKERELVAAITSGDSTYYADSVNGRFTISRDNAKNTVYLQKNSQKPEDTAVYYCGQGTQVTVSS,low polyreactivity
2,QVQLVESGGGLVQAGGSLRLSCAASGSTFPSNAMGWYRQAPGKESELVAAISDSGSTTYYADSVKGRFTISRDNAKNTVYLQMNSLKPEDTAVYYCNAYLRFVDVSLDYQLLLEHDYWGQGTQVTVSS,low polyreactivity
3,QVQLVESGGGLVQAGGSLRLSCAASGSTFPSYAMGWYRQAPGKERELVAAINSGGGTNYADSVKGRFTISRDNAKNTVYLQMNSLKPEDTAVYYCAKSRYDYTKTEGGYWGQGSQVTVSS,low polyreactivity
4,QVQLVESGGGLVQAGGSLRLSCAASGSTFPSYAMGWYRQAPGKERELVAAINSGGGTNYADSVKGRFTISRDNAKNTVYLQMNSLKPEDTAVYYCATDDPLSQINEQGMDYWGQGTQVTVSS,low polyreactivity
5,QVQLVESGGGLVQAGGSLRLSCAASGSTFPSYAMGWYRQAPGKERELVAAISRRSSRTYYADSVKGRFTISRDNAKNTVYLQMNSLKPEDTAVYYCNADAGRHSDEYGYDYWGQGTQVTVSS,high polyreactivity
6,QVQLVESGGGLVQAGGSLRLSCAASGSTFPVNAMGWYRQAPGKERELVARIRGSGGSTYYADSVKGRFTISRDNAKNTVYLQINSLKPEDTAVYYCAARYIGYSSYKYDYWGQGTQVTVSS,high polyreactivity
7,QVQLVESGGGLVQAGGSLRLSCAASGSTFPVYAMGWYRQAPGKERELVAAISRAGSTNYADSVKGRFTISRDNAKNTVYLQMNSLKPEDTAVYYCAARGYLWAGEWYVRRDYWGQGTQVTVSS,high polyreactivity
8,QVQLVESGGGLVQAGGSLRLSCAASGSTFPVYAMGWYRQAPGKERELVAAITSGVSTNYADSVKGRFTISRDNAKNTVYLQMNSLKPEDTAFYYCAKDFGLLPIRDDYWGQGTQVTVSS,low polyreactivity
9,QVQLVESGGGLVQAGGSLRLSCAASGSTFPVYAMGWYRQEPGKERELVAAITSGVSTNYADSVKGRFTISRDNAKNTVYLQMNSLKPEDTAVYYCAKDFGLLPIRDDYWGQGTQVTVSS,low polyreactivity
10,QVQLVESGGGLVQAGGSLRLSCAASGSTFPWNAMGWYRQAPGKERELVAAIRTGGGRTYYADSVKGRFTISRDNAKNTVYLQMNSLKPEDTAVYYCNAYQSSGRYRNSYGYWGQGTQVTVSS,high polyreactivity
11,QVQLVESGGGLVQAGGSLRLSCAASGSTFPWYAMGWARQAPGKETELVAAITTSGGTTYYADSVKGRFTISRDNAKNTVYLQMNSLKPEDTAVYYCNKQFGYPWEYYSYSYDYWGQGTQVTVSS,low polyreactivity
12,QVQLVESGGGLVQAGGSLRLSCAASGSTFPWYAMGWYRQAPGKERELVAAISFSGGSTYYADSVKGRFTISRDNAKNTVYFQMNSLKPEDTAVYYCAAVWGYVIWVDTAVYREYDYWGQGTQVTVSS,high polyreactivity
13,QVQLVESGGGLVQAGGSLRLSCAASGSTFPYYAMGRYRPAPGKEMELVAAISQNGGSSYYADSVKGRFTISRDNAKNTVYLQINSLKPEDTAVYYCNADGVGGEYRLSGYDYWGQGTQVTVSS,low polyreactivity
14,QVQLVESGGGLVQAGGSLRLSCAASGSTFPYYAMGWSRQAPGKERELVAAISGSGGTTYYADSVKGRFTISRDNAKNTVYLQMNSLKPEYTAVYYCAVDIGVGYGYYYWGQGTQVTVSS,low polyreactivity
15,QVQLVESGGGLVQAGGSLRLSCAASGSTFPYYAMGWYRQAPGKERELVAAISQNGGSTYYADSVKGRFTISRDNAKNTVYLQMNSLKPEDTAVYYCNADGVGGEYRLSGYDYWGQGTQVTVSS,low polyreactivity
16,QVQLVESGGGLVQAGGSLRLSCAASGSTFPYYAMGWYRQAPGKERELVAAISSSGGSTYYADSVKGRFTFSRDNAKNTVYLLMNSLKPEDTAVYYCNVVKSRGLFSYDYWGQGSQVTVSS,high polyreactivity
17,QVQLVESGGGLVQAGGSLRLSCAASGSTFPYYAMGWYRQAPGKERELVATITTSGVSTYYADSVKGRFTISRDNAKNTVYLQMNSLKPEDTAVYYCAADPPGFTQYGYWGQGTQVTVSS,low polyreactivity
18,QVQLVESGGGLVQAGGSLRLSCAASGSTFPYYAMGWYRQAPGKERELVAVITSSGSRTYYADSVKGRFTISRDNAKNTVYLQMNSLKPEDTAVYYCARDTRYYRPYRSQYDYWGQGTQVTVSS,high polyreactivity
19,QVQLVESGGGLVQAGGSLRLSCAASGSTFPYYAMGWYRQATGKERELVAAISSGGRTTYADSVKGRFTISRDNAKNTVYLQMNSLKPEDTAVYYCNRRYTHGGFSKYEYWGQGTQVTVSS,high polyreactivity
20,QVQLVESGGGLVQAGGSLRLSCAASGSTFQFYAMGWYRQAPGKERELVASITSRGGNTHYADSVKGRFTISRDNAKNTVYLQMNSLKPEDTAVYYCAARGGWYGTYDYWGQGTQVTVSS,low polyreactivity

# Source: the nanobody polyreactivity screen of Harvey et al. (2022)
